# Measured values taken from patent publication US20220056091A1 (BRIGHT PEAK THERAPEUTICS, published 2022).
# Substitutions are numbered along the chain they refer to. Names and notes keep the numbering of the source.
# T1: IL-18Rα/β heterodimer (Fc fused human IL-18Rα mixed and pre-incubated with Fc fused human IL-18Rβ) (human, UniProt Q13478 19-329; O95256 20-356, limits assumed)
# T1 construct: 6 µg/mL of each receptor mixed and pre-incubated 30 min before capture on anti-human IgG; also called alpha/beta heterodimer IL-18 receptor; not shown: Fc part
# T1 sequence (looked up) 1: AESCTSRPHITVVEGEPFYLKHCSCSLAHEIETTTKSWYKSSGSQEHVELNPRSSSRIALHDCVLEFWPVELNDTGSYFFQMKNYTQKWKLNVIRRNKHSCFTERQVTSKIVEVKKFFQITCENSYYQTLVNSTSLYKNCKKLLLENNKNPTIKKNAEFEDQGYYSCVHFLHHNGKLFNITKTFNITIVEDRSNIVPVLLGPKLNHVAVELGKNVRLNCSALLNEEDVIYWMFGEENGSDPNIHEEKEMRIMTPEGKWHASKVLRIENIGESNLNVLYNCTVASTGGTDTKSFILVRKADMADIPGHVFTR
# T1 sequence (looked up) 2: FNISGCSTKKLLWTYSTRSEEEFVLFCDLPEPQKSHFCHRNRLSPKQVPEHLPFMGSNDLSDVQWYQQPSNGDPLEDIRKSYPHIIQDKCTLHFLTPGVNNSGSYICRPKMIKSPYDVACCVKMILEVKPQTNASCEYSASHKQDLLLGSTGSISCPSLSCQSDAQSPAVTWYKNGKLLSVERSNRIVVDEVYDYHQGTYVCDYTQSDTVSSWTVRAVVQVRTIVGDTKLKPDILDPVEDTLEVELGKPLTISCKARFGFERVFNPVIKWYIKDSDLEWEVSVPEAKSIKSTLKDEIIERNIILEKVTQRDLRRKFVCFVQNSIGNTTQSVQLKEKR
# T2: Fc fused human IL-18BP isoform a (IL-18BPa) (human, UniProt O95998 31-194)
# T2 construct: also called IL-18BP monomer; not shown: Fc part
# T2 sequence (looked up): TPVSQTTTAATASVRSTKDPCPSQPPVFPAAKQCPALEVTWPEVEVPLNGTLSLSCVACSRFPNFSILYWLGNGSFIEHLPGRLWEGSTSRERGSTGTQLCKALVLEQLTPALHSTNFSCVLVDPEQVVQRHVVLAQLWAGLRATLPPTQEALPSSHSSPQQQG
# T3: Fc fused human IL-18Rα (human, UniProt Q13478 19-329, limits assumed)
# T3 construct: also called IL-18Rα monomer; IL-18 receptor alpha; not shown: Fc part
# T3 sequence (looked up): T1 sequence (looked up) 1
# B1: Modified IL-18 polypeptide of SEQ ID NO: 2 (E06K, K53A, S55A) (ligand)
# chain: YFGKLKSKLSVIRNLNDQVLFIDQGNRPLFEDMTDSDCRDNAPRTIFIISMYADAQPRGMAVTISVKCEKISTLSCENKIISFKEMNPPDNIKDTKSDIIFFQRSVPGHDNKMQFESSSYEGYFLACEKERDLFKLILKKEDELGDRSIMFTVQNED
# B2: Modified IL-18 polypeptide of SEQ ID NO: 10 (E06K, K53A, S55A, T63A) (ligand)
# chain: B1 chain with T63A
# B3: Modified IL-18 polypeptide of SEQ ID NO: 18 (E06K, K53A, T63A) (ligand)
# chain: B1 chain with A55S, T63A
# B4: Modified IL-18 polypeptide of SEQ ID NO: 22 (E06K, K53A, C38S, C68S, C76S, C127S, K70C) (ligand)
# chain: B1 chain with C38S, A55S, C68S, K70C, C76S, C127S
# B5: Modified IL-18 polypeptide of SEQ ID NO: 70 (E6K, K53A, C38S, C76S, C127S) (ligand)
# chain: B1 chain with C38S, A55S, C76S, C127S
# B6: Modified IL-18 polypeptide of SEQ ID NO: 71 (E6K, C38S, K53A) (ligand)
# chain: B1 chain with C38S, A55S
# B7: Modified IL-18 polypeptide of SEQ ID NO: 71 with a 30 kDa PEG attached at residue C68 (E6K, C38S, K53A, C68-30kDPEG) (ligand)
# chain: B1 chain with C38S, A55S
# modifications: 30 kDa PEG on Cys 68 (30 kDa DBCO-polyethylene glycol clicked to a bromoacetamido-PEG5-azide linker on the cysteine)
# notes: also called 71 + PEG
# B8: Modified IL-18 polypeptide of SEQ ID NO: 3 (Y01G, F02A, E06K, M51G, K53A, D54A, S55A, T63A) (ligand)
# chain: B1 chain with Y1G, F2A, M51G, D54A, T63A
# B9: Modified IL-18 polypeptide of SEQ ID NO: 12 (E06K, K53A, S55A, F02A) (ligand)
# chain: B1 chain with F2A
# B10: Modified IL-18 polypeptide of SEQ ID NO: 13 (E06K, K53A, S55A, D54A) (ligand)
# chain: B1 chain with D54A
# B11: Modified IL-18 polypeptide of SEQ ID NO: 15 (C38S, C68S, C76S, C127S) (ligand)
# chain: B1 chain with K6E, C38S, A53K, A55S, C68S, C76S, C127S
# B12: Modified IL-18 polypeptide of SEQ ID NO: 16 (C38S, C68S, C76S, C127S, K70C) (ligand)
# chain: B1 chain with K6E, C38S, A53K, A55S, C68S, K70C, C76S, C127S
# B13: Modified IL-18 polypeptide of SEQ ID NO: 17 (E06K, K53A, S55A, C38S, C68S, C76S, C127S, K70C) (ligand)
# chain: B1 chain with C38S, C68S, K70C, C76S, C127S
# B14: Modified IL-18 polypeptide of SEQ ID NO: 23 (K53A, T63A, C38S, C68S, C76S, C127S, K70C) (ligand)
# chain: B1 chain with K6E, C38S, A55S, T63A, C68S, K70C, C76S, C127S
# B15: Modified IL-18 polypeptide of SEQ ID NO: 14 (E06K, K53A, S55A, M51G) (ligand)
# chain: B1 chain with M51G
# Target: IL-18R on HEK-Blue IL18R reporter cells (InvivoGen, #hkb-hmil18)
# Experiment: cell-based or functional assay
Binder,"EC50 (pM), HEK-Blue IL18R reporter assay","Potency loss Mutant/NWT, HEK-Blue IL18R reporter assay"
B1,272 pM,81.8 fold
B2,0.79 pM,0.24 fold
B3,1.77 pM,0.53 fold
B4,9.12 pM,2.74 fold
B5,3.73 pM,1.11 fold
B6,0.86 pM,0.26 fold
B7,1.85 pM,0.56 fold

# Target: anti-IL18 monoclonal antibody (MBL, cat #D043-3, Clone 25-2G)
# Experiment: sandwich ELISA, capture clone 25-2G, detection biotinylated clone 159-12B; without IL-18BP; the signal depends on both antibodies
# Procedure: (§1) Immune-related PD effects were determined by analyzing cytokine levels in plasma. The following plasma cytokines were measured: IFNγ, CXCL9, CXCL10, GM-CSF, IL-1a, FasL, and IL-18BP. The activation status of leukocytes was determined by monitoring surface markers: ICOS, PD-1, CD25, CD69, and Fas. Bioanalysis was conducted by detecting the total amount of IL-18 variants (free and IL-18BP-complexed, see FIG. 7). Corning high-binding half-area plates (Fisher Scientific, Reinach, Switzerland) were coated overnight at 4° C. with 25 μl of anti-IL18 monoclonal antibody (MBL, cat #D043-3, Clone 25-2G) at 2 μg/ml in PBS. Plates were then washed four times with 100 μl of PBS-0.02% Tween20. Plates surfaces were blocked with 25 μl of PBS-0.02% Tween20-1% BSA at 37° C. during 1 h. Plates were then washed four times with 100 μl of PBS-0.02% Tween20. Twenty-five microliters of IL-18 variants (or of mouse plasma) were added in […] serial dilutions starting at 50 nM down to 0.02 nM into PBS-0.02% Tween20-0.1% BSA and incubated at 37° C. during 2h. […] Plates were incubated during 2h at 37° C. and were then washed four times with 100 μl of PBS-0.02% Tween20. […] ELISA signal was then measured at 450 nm on an EnSpire plate reader from Perkin Elmer (Schwerzenbach, Switzerland)
row,Binder,EC50 (read off the curve)
1,B1,~0.2 nM

# Target: T1, IL-18Rα/β heterodimer (Fc fused human …)
# Experiment: SPR, Fc-IL-18Rα/Fc-IL-18Rβ mix captured, heterogeneous ligand model
# Procedure: (§2) The interaction of the wild type and of modified IL-18 polypeptides with human IL-18 receptor subunits were measured with Surface Plasmon Resonance (SPR) technology. Anti-human IgG antibodies were bound by amine coupling onto a CM5 chip to capture 6 μg/mL of Fc fused human IL-18Rα, 6 μg/mL of Fc fused human IL-18Rβ, or 2 μg/mL of Fc fused human IL-18BP isoform a (IL-18BPa) for 30 min before capture. In other settings, 6 μg/mL of alpha and beta IL-18 receptors were mixed and pre-incubated for 30 min before capture of the alpha/beta heterodimer IL-18 receptor.
# (§3) The kinetic binding of the IL-18 analytes were measured with a Biacore 8K instrument in two-fold serial dilutions starting at 1 μM down to 0.98 nM. Regeneration of the surface back to amine coupled anti IgG antibody was done after every concentration of analyte. To measure the protein association to the receptors, the samples were injected with a flow rate of 50 μL/min for 60 s, followed by 300 s buffer only to detect the dissociation. The used running buffer was 1×PBS with 0.05% Tween20. The relative response units (RU, Y-axis) are plotted against time (s, X-axis) and analyzed in a kinetic 1:1 binding model for the monomer receptor binding and for the binding to the IL-18BP. A kinetic heterogenous ligand fit model was applied for the alpha/beta heterodimer binding.
# Modified IL-18 polypeptides bearing sequence modifications E06K, K53A, S55A, and T63A maintained binding affinity to IL-18Rα/β heterodimer.
Binder,Kd,koff,kon
B1,1930 nM,0.0734 s⁻¹,39200 M⁻¹ s⁻¹
B8,> 1000 nM,,
B2,132 nM,0.054 s⁻¹,409000 M⁻¹ s⁻¹
B9,> 1000 nM,,
B10,> 1000 nM,,
B11,315 nM,0.022 s⁻¹,69800 M⁻¹ s⁻¹
B12,200 nM,0.0317 s⁻¹,159000 M⁻¹ s⁻¹
B13,> 1000 nM,,
B3,7.01 nM,0.000955 s⁻¹,136000 M⁻¹ s⁻¹
B4,48.2 nM,0.000761 s⁻¹,15800 M⁻¹ s⁻¹
B14,> 1000 nM,,
B5,13.2 nM,0.0006 s⁻¹,43600 M⁻¹ s⁻¹
B6,2.92 nM,0.0008 s⁻¹,279000 M⁻¹ s⁻¹
B7,23.9 nM,0.0008 s⁻¹,32200 M⁻¹ s⁻¹

# Target: T2, Fc fused human IL-18BP isoform a …
# Experiment: SPR, Fc-IL-18BPa captured, 1:1 model
# Procedure: as §2, §3
# Modified IL-18 polypeptides bearing sequence modifications K53A, S55A, E06K, C38S, C68S, C76S, C127S, and/or K70C maintained binding affinity to IL-18BP.
Binder,Kd,koff,kon
B2,49 nM,0.0181 s⁻¹,370000 M⁻¹ s⁻¹
B9,> 1000 nM,,
B10,> 1000 nM,,
B15,> 1000 nM,,
B11,0.199 nM,0.000253 s⁻¹,1.27e+06 M⁻¹ s⁻¹
B12,0.374 nM,0.000265 s⁻¹,708000 M⁻¹ s⁻¹
B3,10.4 nM,0.00291 s⁻¹,279000 M⁻¹ s⁻¹
B4,23.2 nM,0.00235 s⁻¹,101000 M⁻¹ s⁻¹
B14,52.8 nM,0.00118 s⁻¹,22400 M⁻¹ s⁻¹
B5,29.1 nM,0.0037 s⁻¹,128000 M⁻¹ s⁻¹
B6,2.72 nM,0.0031 s⁻¹,1.14e+06 M⁻¹ s⁻¹
B7,24.5 nM,0.0039 s⁻¹,158000 M⁻¹ s⁻¹

# Target: T3, Fc fused human IL-18Rα
# Experiment: SPR, Fc-IL-18Rα captured, 1:1 model
# Procedure: as §2, §3
# Modified IL-18 polypeptides having sequence modifications E06K, K53A, S55A, and T63A maintained binding affinity to IL-18Rα.
Binder,Kd,koff,kon
B1,2000 nM,0.0627 s⁻¹,31800 M⁻¹ s⁻¹
B8,> 1000 nM,,
B2,147 nM,0.0496 s⁻¹,337000 M⁻¹ s⁻¹
B9,> 1000 nM,,
B10,> 1000 nM,,
B15,> 1000 nM,,
B11,231 nM,0.0179 s⁻¹,77500 M⁻¹ s⁻¹
B12,304 nM,0.0158 s⁻¹,51900 M⁻¹ s⁻¹
B13,> 1000 nM,,
B3,38 nM,0.00573 s⁻¹,151000 M⁻¹ s⁻¹
B4,2210 nM,0.0199 s⁻¹,8970 M⁻¹ s⁻¹
B14,> 1000 nM,,
B5,379 nM,0.0369 s⁻¹,92600 M⁻¹ s⁻¹
B6,72.4 nM,0.0151 s⁻¹,208000 M⁻¹ s⁻¹
B7,682 nM,0.0217 s⁻¹,31800 M⁻¹ s⁻¹

# Target: anti-IL18 monoclonal antibody (MBL, cat #D043-3, Clone 25-2G)
# Experiment: sandwich ELISA, capture clone 25-2G, detection biotinylated clone 159-12B; in the presence of IL-18BP (form and concentration not given); the signal depends on both antibodies
# Procedure: as §1
row,Binder,EC50 (read off the curve)
1,B1,~0.2 nM
